Sequences and labels used below:
B1: Enterobactin synthase component B (Escherichia coli (strain K12)), P0ADI4 (parent)
chain: MAIPKLQAYALPESHDIPQNKVDWAFEPQRAALLIHDMQDYFVSFWGENCPMMEQVIANIAALRDYCKQHNIPVYYTAQPKEQSDEDRALLNDMWGPGLTRSPEQQKVVDRLTPDADDTVLVKWRYSAFHRSPLEQMLKESGRNQLIITGVYAHIGCMTTATDAFMRDIKPFMVADALADFSRDEHLMSLKYVAGRSGRVVMTEELLPAPIPASKAALREVILPLLDESDEPFDDDNLIDYGLDSVRMMALAARWRKVHGDIDFVMLAKNPTIDAWWKLLSREVK
partner: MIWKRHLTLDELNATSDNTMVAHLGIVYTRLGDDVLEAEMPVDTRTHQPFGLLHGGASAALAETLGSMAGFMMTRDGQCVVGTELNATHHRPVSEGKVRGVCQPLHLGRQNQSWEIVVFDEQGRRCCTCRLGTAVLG

Here are results for one variant from IntAct's records for PubMed 17675380.

This assay covers variants of B1. Conditions: with enth_ecoli entH.
For the variant MAIPKLQAYALPESHDIPQNKVDWAFEPQRAALLIHDMQDYFVSFWGENCPMMEQVIANIAALRDYCKQHNIPVYYTAQPKEQSDEDRALLNDMWGPGLTRSPEQQKVVDRLTPDADDTVLVKWRYSAFHRSPLEQMLKESGRNQLIITGVYAHIGCMTTATDAFMRDIKPFMVADALADFSRDEHLMSLKYVAGRSGRVVMTEELLPAPIPASKAALREVILPLLDESDEPFDDDNLIDYGLDAVRMMALAARWRKVHGDIDFVMLAKNPTIDAWWKLLSREVK [S245A], the “effect of a mutation on the interaction” value is “decreasing interaction strength”.
